Measurements as given in article PMC5912465, “The N-terminal domain of a tick evasin is critical for chemokine binding and neutralization and confers specific binding activity to other evasins” (The Journal of Biological Chemistry, 2018).

Key:
Conditions in all cases: both partners purified
[1] = target: T1, N-terminally tagged P672 (P672_RHIPU), glycosylated (Rhipicephalus pulchellus, UniProt L7MC74 22-125); assay: BLI
T1 construct: source: HEK293F, transiently transfected, purified from culture supernatant (nickel IMAC, size exclusion chromatography)
T1 sequence: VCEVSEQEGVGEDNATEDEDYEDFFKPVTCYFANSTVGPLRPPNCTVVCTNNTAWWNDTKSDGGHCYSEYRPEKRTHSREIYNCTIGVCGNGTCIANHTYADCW

[2] = target: T2, P672 with residues Val-1—Thr-16 truncated (Rhipicephalus pulchellus, UniProt L7MC74 38-125); assay: BLI
T2 sequence: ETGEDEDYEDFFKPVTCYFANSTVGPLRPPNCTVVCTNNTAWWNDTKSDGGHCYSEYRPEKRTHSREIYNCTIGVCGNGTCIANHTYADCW

[3] = target: T3, partially deglycosylated N-terminally tagged P672 (Rhipicephalus pulchellus, UniProt L7MC74 22-125); assay: BLI
T3 sequence: T1 sequence

[4] = target: T3, partially deglycosylated N-terminally …; assay: native MS

B1: CCL3 (ligand, human, UniProt P10147 24-92, looked up)
chain: SLAADTPTACCFSYTSRQIPQNFIADYFETSSQCSKPGVIFLTKRSRQVCADPSEEWVQKYVSDLELSA
B1: binds [1].

B2: CCL7 (ligand)
chain: not shown
notes: also called MCP-3
B2: binds [1].

B3: CCL16 (ligand, human, UniProt O15467 24-120, looked up)
chain: QPKVPEWVNTPSTCCLKYYEKVLPRRLVVGYRKALNCHLPAIIFVTKRNREVCTNPNDDWVQEYIKDPNLPLLPTRNLSTVKIITAKNGQPQLLNSQ
B3: binds [1].

B4: CCL8 (human chemokine panel) (ligand, UniProt P80075 24-99, looked up)
chain: QPDSVSIPITCCFNVINRKIPIQRLESYTRITNIQCPKEAVIFKTKRGKEVCADPKERWVRDSMKHLDQIFQNLKP
notes: also called MCP-2
B4 showed a Kd [2] of 30.4 nM and a Kd [3] of 72.5 nM.

B5: human CCL8 (residues Gln-24 to Pro-99), expressed in E. coli (ligand, UniProt P80075 24-99, looked up)
chain: B4 chain
notes: also called Purified CCL8
With B5 the “stoichiometry N” value [4] was 1.

B6: CCL18 (ligand, human, UniProt P55774 21-89, looked up)
chain: AQVGTNKELCCLVYTSWQIPQKFIVDYSETSPQCPKPGVILLTKRGRQICADPNKKWVQKYISDLKLNA
In the case of B6, the Kd [1] is reported as < 10 nM.

B7: CCL3L1 (ligand, human, UniProt P16619 24-93, looked up)
chain: APLAADTPTACCFSYTSRQIPQNFIADYFETSSQCSKPSVIFLTKRGRQVCADPSEEWVQKYVSDLELSA
B7: binds [1].

B8: CCL14 (ligand, human, UniProt Q16627 20-93, looked up)
chain: TKTESSSRGPYHPSECCFTYTTYKIPRQRIMDYYETNSQCSKPGIVFITKRGHSVCTNPSDKWVQDYIKDMKEN
In the case of B8, the Kd [1] is reported as < 10 nM.

B9: CCL23 (ligand, human, UniProt P55773 22-120, looked up)
chain: RVTKDAETEFMMSKLPLENPVLLDRFHATSADCCISYTPRSIPCSLLESYFETNSECSKPGVIFLTKKGRRFCANPSDKQVQVCMRMLKLDTRIKTRKN
For B9, the Kd [1] was < 10 nM.

B10: CCL1 (ligand, human, UniProt P22362 24-96, looked up)
chain: KSMQVPFSRCCFSFAEQEIPLRAILCYRNTSSICSNEGLIFKLKRGKEACALDTVGWVQRHRKMLRHCPSKRK
B10: binds [1].

B11: CCL11 (ligand)
chain: not shown
With B11 the Kd [1] was < 10 nM.
